Target: FLAG-tagged Sig-1R, Q99720
Assay: co-immunoprecipitation (IP: V5, Western blot for FLAG, quantified)
Details: chain shown with the change; n = 4; parent: est. 100; read off a plot

Chain of FLAG-tagged Sig-1R, Q99720 (Q99720 whole entry): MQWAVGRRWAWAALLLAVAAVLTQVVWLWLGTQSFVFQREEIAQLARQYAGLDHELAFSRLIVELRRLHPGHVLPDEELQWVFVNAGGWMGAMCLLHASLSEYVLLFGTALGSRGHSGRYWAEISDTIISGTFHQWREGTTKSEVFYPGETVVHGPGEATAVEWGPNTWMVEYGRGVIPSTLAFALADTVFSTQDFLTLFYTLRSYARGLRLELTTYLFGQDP

- percent of parent: 190%
B1: ΔIRE1-V5/His (ER lumenal domain of human IRE1), O75460 D123P (protein)
chain: IFGSTSTVTLPETLLFVSTLDGSLHAVSKRTGSIKWTLKEDPVLQVPTHVEEPAFLPDPNDGSLYTLGSKNNEGLTKLPFTIPELVQASPCRSSDGILYMGKKQPIWYVIDLLTGEKQQTLSSAFADSLCPSTSLLYLGRTEYTITMYDTKTRELRWNATYFDYAASLPEDDVDYKMSHFVSNGDGLVVTVDSESGDVLWIQNYASPVVAFYVWQREGLRKVMHINVAVETLRYLTFMSGEVGRITKWKYPFPKETEAKSKLTPTLYVGKYSTSLYASPSMVHEGVAVVPRGSTLPLLEGPQTDGVTIGDKGECVITPSTDVKFDPGLKSKNKLNYLRNYWLLIGHHETPLSASTKMLERFPNNLPKHRENVIPADSEKKSFEEVINLVDQTSENAPTTVSRDVEEKPAHAPARPEAPVDSMLKD
